According to the supplement of paper PMC9732359:
± gives the uncertainty stated by the source.

Experiment: protein stability index of a GFP-peptide fusion (yeast GPS) (PSI 1-4); higher = more stable; sorted into four equal gates, so the index is relative within each strain
Outline: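 Plasmids isolated from each sorting gate were PCR-amplified and Illumina-sequenced, and barcodes assigned the reads to strains. The gates, four of equal size, were set by GFP/Cherry fluorescence ratio on mid-log cultures in leucine-free medium. These cultures were yeast carrying a pooled library of tiled 17-residue yeast protein peptides fused downstream of GFP on a plasmid that also expresses Cherry. The protein stability index is the sum of every gate's read frequency times its gate number.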

Row | Sequence | protein stability index (doa10∆) | protein stability index (pdr5∆) | protein stability index (san1∆) | protein stability index (ubr1∆)
1 | PSSLNSDKIPYVAPTKK [SRB4] | 2.24 ± 0.073 | 2.59 ± 0.1 | 2.15 ± 0.086 | 2.09 ± 0.063
2 | GVNELAPIPKGRVKYTK [POP1] | 3.05 ± 0.08 | 2.87 ± 0.06 | 3.17 ± 0.066 | 2.67 ± 0.069
3 | ATIIGIISTAIADSTHV [ECM29] | 1.74 ± 0.073 | 1.65 ± 0.061 | 1.95 ± 0.066 | 1.51 ± 0.04
4 | NKGWKLQSLNESKDLLR [SRB4] | 2.81 ± 0.13 | 2.57 ± 0.1 | 2.32 ± 0.11 | 2.93 ± 0.15
5 | TFENTNNTEKNDVTNKN [SIR4] | 2.78 ± 0.094 | 2.89 ± 0.068 | 2.88 ± 0.059 | 3.04 ± 0.039
6 | IYEVDITVHAPLLPIVE [SNU114] | 2.32 ± 0.056 | 2.29 ± 0.056 | 2.19 ± 0.088 | 2.52 ± 0.043
7 | LIPASDLSWSKQTDTGI [PRP8] | 2.32 ± 0.089 | 2.68 ± 0.063 | 2.79 ± 0.065 | 2.38 ± 0.044
8 | VQSQVDSSSVSEDSAVF [FAS1] | 3.11 ± 0.072 | 3.33 ± 0.08 | 3.12 ± 0.047 | 3.29 ± 0.049
9 | VLFITPDIVGHEFTLSF [BRR2] | 1.87 ± 0.049 | 2.29 ± 0.049 | 2.18 ± 0.055 | 2.3 ± 0.04
10 | IYKRGQAGVTKASVTIV [SMC2] | 1.61 ± 0.093 | 1.73 ± 0.083 | 1.78 ± 0.13 | 1.16 ± 0.11
11 | RLKGDIFCVGSGQTFAY [PRE2] | 2.39 ± 0.05 | 1.77 ± 0.041 | 2.25 ± 0.019 | 1.79 ± 0.044
12 | RFFWKRSTNKKSKILRK [UBP6] | 1.19 ± 0.19 | – | – | 1.28 ± 0.16
13 | DKSLDSSNASFNNQGKL [MED1] | 2.98 ± 0.045 | 3.07 ± 0.043 | 2.68 ± 0.035 | 2.99 ± 0.045
14 | ATSDNKTTNTTPSFSFG [YJL041W/NSP1] | 3.13 ± 0.063 | 3.05 ± 0.076 | 3.09 ± 0.032 | 3.1 ± 0.042
15 | TRYNRDYMLSMANIPER [SNU114] | 1.48 ± 0.073 | 2.44 ± 0.055 | 2.62 ± 0.1 | 1.43 ± 0.047
16 | FKFSGTVSSDVFKLNPS [YLR335W/NUP2] | 3 ± 0.29 | – | – | –
17 | IRGAVGNSEAIPGLSAG [RTT102] | 3.23 ± 0.057 | 3.36 ± 0.068 | 3.26 ± 0.088 | 3.43 ± 0.053
18 | PQTMEHYKQQIAVLIEL [YCS4] | 3.01 ± 0.083 | 3.05 ± 0.12 | 2.92 ± 0.11 | 2.52 ± 0.066
19 | KSEEVKAEDDTGEEEED [RPC37] | – | – | – | 2.95 ± 0.19
20 | PLEKITDAYLDQYLWYE [PRP8] | 3.19 ± 0.13 | 3.36 ± 0.18 | 3.03 ± 0.18 | 3.18 ± 0.12
21 | SFTNYITRSFKEPRLVI [RPS0A] | 2.74 ± 0.09 | 2.79 ± 0.068 | 2.55 ± 0.068 | 2.83 ± 0.074
22 | NAGPNSNIPNLLRNLES [YDL088C/ASM4] | 2.35 ± 0.043 | 1.96 ± 0.043 | 2.23 ± 0.073 | 2.46 ± 0.031
23 | RMKSITSTSQKIPSASI [SNF5] | 3.2 ± 0.082 | 3.18 ± 0.072 | 3.17 ± 0.045 | 3.08 ± 0.051
24 | QEDELDEGTALSRLGLK [RPB10] | 3.41 ± 0.073 | 3.38 ± 0.086 | 3.5 ± 0.058 | 3.06 ± 0.079
25 | LGWDLDAIIPFAAIPEQ [FAS2] | 2.6 ± 0.28 | 3.14 ± 0.15 | – | 3.15 ± 0.16
26 | SSAAILGLGIAFAGSKN [RPN1] | 1.35 ± 0.081 | 1.94 ± 0.097 | 2.03 ± 0.29 | 1.34 ± 0.092

Row | Sequence | protein stability index (doa10∆) | protein stability index (pdr5∆) | protein stability index (san1∆) | protein stability index (ubr1∆)
27 | LIPDGRHLVNRGREEAA [PRE10] | – | 1.41 ± 0.28 | – | –
28 | PKFAIQDNHHITKVTEN [YMR129W/POM152] | 2.83 ± 0.052 | 2.88 ± 0.058 | 2.75 ± 0.04 | 3.09 ± 0.041
29 | GTGRSGQGAFGNMCRGG [RPL4A] | 3.49 ± 0.14 | 3.37 ± 0.078 | 3.33 ± 0.11 | 3.24 ± 0.063
30 | PTHIWNAKRSHMMKRWG [POP1] | 2.35 ± 0.075 | 2.24 ± 0.068 | 1.98 ± 0.12 | 2.26 ± 0.067
31 | LIKERQEMERKLEKKRN [ESC2] | – | – | 3.1 ± 0.15 | –
32 | YLKHNSIAEEIPIAIVL [RET1] | 2.65 ± 0.052 | 2.18 ± 0.047 | 1.73 ± 0.085 | 2.16 ± 0.05
33 | PAQKDSSVVSEPKKPSF [YOR098C/NUP1] | 2.94 ± 0.061 | 2.71 ± 0.05 | 2.3 ± 0.076 | 2.89 ± 0.042
34 | LYLKVIPMDFIRNVLVT [SSN2] | 1.36 ± 0.094 | 1.11 ± 0.16 | 1.4 ± 0.23 | 1.29 ± 0.16
35 | LLHVAVSDSNDDVRRAA [RPN2] | 3.01 ± 0.087 | 3.22 ± 0.076 | 2.69 ± 0.12 | 3.13 ± 0.11
36 | PTQITQYTQRLSKLEKA [SRP68] | 1.75 ± 0.06 | 2.08 ± 0.045 | 2.06 ± 0.079 | 2.48 ± 0.045
37 | TIEHAADITDGNNTELT [YCG1] | 3.29 ± 0.081 | 3.46 ± 0.082 | 3.33 ± 0.078 | 3.31 ± 0.069
38 | RNKRAVQLPILKIIYTG [YJL039C/NUP192] | 1.6 ± 0.056 | 1.87 ± 0.048 | 1.97 ± 0.069 | 2.02 ± 0.067
39 | HPVSLISFAIYSALNST [RRP42] | 1.53 ± 0.051 | 1.55 ± 0.058 | 1.62 ± 0.089 | 1.84 ± 0.045
40 | HPTIYESLPQYVDFVPM [POP4] | 1.72 ± 0.045 | 2 ± 0.048 | 1.81 ± 0.056 | 1.78 ± 0.051
41 | PFLLMELHKKLVEAAKL [YDL116W/NUP84] | 1.41 ± 0.11 | 1.13 ± 0.093 | – | 1.25 ± 0.13
42 | SSDALSKEKANFLETIA [SIR4] | 1.49 ± 0.057 | 1.68 ± 0.046 | 1.38 ± 0.091 | 1.52 ± 0.048
43 | NMLLDPAANESEVANNG [RRP42] | 2.05 ± 0.082 | 2.74 ± 0.059 | 2.64 ± 0.083 | 2.34 ± 0.042
44 | KLDASKKQQAALTNELN [YIL149C/MLP2] | 2.79 ± 0.069 | 2.99 ± 0.075 | 2.68 ± 0.08 | 2.17 ± 0.062
45 | AVVGQQIISGNRVPDGF [RPO31] | – | 3.28 ± 0.28 | 2.88 ± 0.2 | 2.65 ± 0.13
46 | YDTQLKVSPEELPLVIT [ARP7] | 2.6 ± 0.047 | 2.77 ± 0.062 | 2.59 ± 0.041 | 2.62 ± 0.042
47 | DGRVNRFYELEESLTVL [YJR042W/NUP85] | 2.28 ± 0.12 | 2.21 ± 0.13 | – | 1.99 ± 0.1
48 | KFKRHHSDRYHRVAENW [RPL32] | 3 ± 0.072 | 3.21 ± 0.065 | 3.2 ± 0.05 | 3.07 ± 0.045
49 | VSYMMPSLYRLLNILIT [SRB8] | 1.22 ± 0.12 | 1.21 ± 0.07 | 1.1 ± 0.12 | 1.3 ± 0.057
50 | TYKYFEVILVDPQHKAI [RPL15A] | 2.32 ± 0.083 | 2.09 ± 0.074 | 2.5 ± 0.15 | 2.63 ± 0.12
51 | RATTYEKLTMVFQDNVY [SIN4] | 2.2 ± 0.065 | 2.48 ± 0.051 | 2.21 ± 0.11 | 2.53 ± 0.057
52 | FRRDFLLREYDILSQIL [YJL039C/NUP192] | 1.81 ± 0.12 | 2.32 ± 0.1 | 2.08 ± 0.11 | 2.27 ± 0.06
